{"source": "paper doi:10.1101/183848", "biological_target": "ATP binding cassette protein E1 (ABCE1), endogenous in 293T/17 cells (human (endogenous in 293T/17)) (UniProt P61221)", "test": "proximity ligation", "data": [{"substance": "FIV Gag, wild type, expressed from the FIV pro- env- provirus (natural protein)", "values": [{"measurement": "Gag-ABCE1 PLA spots per cell (PLA spots per cell)", "value": 34.9}]}]}
